Assay results taken from PMC6237851, “A tumor-targeted trimeric 4-1BB-agonistic antibody induces potent anti-tumor immunity without systemic toxicity” (Nature Communications, 2018).

Biological target: the molecule itself
Experiment: SDS-PAGE, reducing against non-reducing; m4-1BBL alone; about 40 kDa in reducing and about 70 kDa in non-reducing conditions (Supplementary Figure 3a)

B1: recombinant soluble mouse 4-1BBL (ligand, UniProt P41274 104-309, looked up)
chain: RTEPRPALTITTSPNLGTRENNADQVTPVSHIGCPNTTQQGSPVFAKLLAKNQASLCNTTLNWHSQDGAGSSYLSQGLRYEEDKKELVVDSPGLYYVFLELKLSPTFTNTGHKVQGWVSLVLQAKPQVDDFDNLALTVELFPCSMENKLVDRSWSQLLLLKAGHRLSVGLRAYLHGAQDAYRDWELSYPNTTSFGLFLVKPDNPWE
notes: 4-1BB ligand (4-1BBL, TNFSF9), mouse, recombinant soluble form; For the RICS imaging it was labelled with CF488A (Mix-n-Stain kit); also called m4-1BBL; 4-1BB-Ligand; source: bought: Biolegend (cat#754402)
B1 was tested, and the “stoichiometry N” value was 3.
